The test has as its target T1, Keap1 Kelch domain (amino acid residues 309 to 624) (human, UniProt Q14145 309-624).
T1 construct: Keap1, Kelch domain, Gene ID 9817 (the human gene), amino acid residues 309 to 624; The species is not put in words; it follows from the printed Gene ID 9817; also called Kelch domain of Keap1; source: E. coli BL21 (Codonplus), purified (Ni-NTA, HiTrap QHP, Superdex 200 Increase)
Description: native gel or EMSA; purified Kelch, Δ54‐PGAM5 and ponicidin incubated on ice for 30 min; 7% non‐denatured gel, 4 °C, 90 V, 1 h; Coomassie staining. As to conditions: both partners purified. (Mobility shift assays separate free from complexed probe on a gel.)

The text below walks through data of PMC11481384, “Ponicidin Promotes Hepatocellular Carcinoma Mitochondrial Apoptosis by Stabilizing Keap1‐PGAM5 Complex” (Advanced Science, 2024).

T1 sequence (Q14145 309-624): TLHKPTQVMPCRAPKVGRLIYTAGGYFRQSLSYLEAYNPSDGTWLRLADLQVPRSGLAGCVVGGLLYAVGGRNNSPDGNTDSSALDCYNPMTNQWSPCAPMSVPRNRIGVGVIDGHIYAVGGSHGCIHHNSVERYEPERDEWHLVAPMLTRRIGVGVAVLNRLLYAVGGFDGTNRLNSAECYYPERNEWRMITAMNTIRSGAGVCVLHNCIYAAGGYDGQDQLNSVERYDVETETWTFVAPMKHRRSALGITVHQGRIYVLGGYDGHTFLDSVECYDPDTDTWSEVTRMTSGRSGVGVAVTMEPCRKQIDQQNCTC

B1: ∆54‐PGAM5 (amino acids from number 54 to 289) (domain or fragment, human, UniProt Q96HS1 54-289, looked up)
chain: GPGVWDPNWDRREPLSLINVRKRNVESGEEELASKLDHYKAKATRHIFLIRHSQYHVDGSLEKDRTLTPLGREQAELTGLRLASLGLKFNKIVHSSMTRAIETTDIISRHLPGVCKVSTDLLREGAPIEPDPPVSHWKPEAVQYYEDGARIEAAFRNYIHRADARQEEDSYEIFICHANVIRYIVCRALQFPPEGWLRLSLNNGSITHLVIRPNGRVALRTLGDTGFMPPDKITRS
notes: PGAM5, Gene ID 192111 (the human gene), amino acid residues 54 to 289; The species is not put in words; it follows from the printed Gene ID 192111; also called Δ54‐PGAM5; PGAM5 domain; source: E. coli BL21 (Codonplus), purified (Ni-NTA, HiTrap QHP, Superdex 200 Increase)
Turning to B1, the binding result is listed as “binds”.
